First the molecules themselves.
T1: full-length beta-Catenin (Uniprot ID P35222) (Homo sapiens (Human), UniProt P35222 2-781)
T1 construct: Tags of the recombinant protein are not described for the FP assay; also called bCat; B-Catenin
T1 sequence: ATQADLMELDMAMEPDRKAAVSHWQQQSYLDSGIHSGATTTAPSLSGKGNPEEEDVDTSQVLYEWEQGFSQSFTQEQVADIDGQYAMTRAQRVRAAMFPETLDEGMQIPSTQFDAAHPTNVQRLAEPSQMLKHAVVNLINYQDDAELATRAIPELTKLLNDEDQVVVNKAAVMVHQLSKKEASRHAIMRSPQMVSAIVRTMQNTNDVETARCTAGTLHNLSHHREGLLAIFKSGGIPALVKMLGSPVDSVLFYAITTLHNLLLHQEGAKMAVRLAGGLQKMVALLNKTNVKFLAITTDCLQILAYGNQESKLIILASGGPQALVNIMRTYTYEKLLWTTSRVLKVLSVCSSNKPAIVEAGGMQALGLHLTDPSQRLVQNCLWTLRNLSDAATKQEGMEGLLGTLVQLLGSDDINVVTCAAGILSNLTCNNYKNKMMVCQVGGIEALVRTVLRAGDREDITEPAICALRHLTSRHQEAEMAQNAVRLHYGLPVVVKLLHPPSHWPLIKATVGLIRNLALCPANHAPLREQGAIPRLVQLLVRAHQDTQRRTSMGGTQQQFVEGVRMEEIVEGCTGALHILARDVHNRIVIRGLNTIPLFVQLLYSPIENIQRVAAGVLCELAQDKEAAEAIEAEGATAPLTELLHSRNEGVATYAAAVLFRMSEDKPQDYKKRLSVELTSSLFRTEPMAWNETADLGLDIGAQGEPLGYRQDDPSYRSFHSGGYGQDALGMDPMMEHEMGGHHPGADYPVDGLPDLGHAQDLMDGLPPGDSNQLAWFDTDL

T2: full-length beta-Catenin (Uniprot ID P35222) (Homo sapiens (Human), UniProt P35222 1-781)
T2 construct: also called bCat; B-Catenin
T2 sequence: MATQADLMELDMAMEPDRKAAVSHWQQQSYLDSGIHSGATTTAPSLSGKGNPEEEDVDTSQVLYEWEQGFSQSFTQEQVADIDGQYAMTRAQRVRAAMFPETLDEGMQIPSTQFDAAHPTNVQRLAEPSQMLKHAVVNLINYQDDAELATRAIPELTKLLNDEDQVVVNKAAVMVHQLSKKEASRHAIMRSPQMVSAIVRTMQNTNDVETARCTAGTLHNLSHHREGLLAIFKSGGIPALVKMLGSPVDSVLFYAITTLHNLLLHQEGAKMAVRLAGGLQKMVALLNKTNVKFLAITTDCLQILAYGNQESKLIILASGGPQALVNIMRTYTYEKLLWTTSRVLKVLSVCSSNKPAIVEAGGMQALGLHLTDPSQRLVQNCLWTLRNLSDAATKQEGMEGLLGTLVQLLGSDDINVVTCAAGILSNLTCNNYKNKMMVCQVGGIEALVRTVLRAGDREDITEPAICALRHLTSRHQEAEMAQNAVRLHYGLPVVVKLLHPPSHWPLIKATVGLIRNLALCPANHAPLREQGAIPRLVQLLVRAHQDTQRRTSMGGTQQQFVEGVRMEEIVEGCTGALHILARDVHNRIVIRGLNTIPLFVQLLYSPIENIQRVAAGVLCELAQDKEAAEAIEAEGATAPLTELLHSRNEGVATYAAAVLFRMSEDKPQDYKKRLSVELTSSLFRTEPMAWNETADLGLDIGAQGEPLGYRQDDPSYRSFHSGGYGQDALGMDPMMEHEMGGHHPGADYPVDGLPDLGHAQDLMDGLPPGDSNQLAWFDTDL

B1: I-634 (peptide)
peptide: Ac-[αAllylPro]DI[B5(16)]DEAAFQ[S8]F[Bta]L-NH2
modifications: staple 1-4, 4-11
notes: Stapled peptide composition; also called Ac-PL3-Asp-Ile-B5-Asp-Glu-Ala-Ala-Phe-Gln-S8-Phe-BztA-Leu-NH2
B2: I-643 (peptide)
peptide: Ac-[αAllylPro]DI[B5(9)]DEAAFQ[S8]F[Bta]W-NH2
modifications: staple 1-4, 4-11
notes: Stapled peptide composition; also called Ac-PL3-Asp-Ile-B5-Asp-Glu-Ala-Ala-Phe-Gln-S8-Phe-BztA-Trp-NH2
B3: I-644 (peptide)
peptide: Ac-[αAllylPro]DI[B5(9)]DEAAFQ[S8]F[Bta]W-NH2
modifications: staple 1-4, 4-11
notes: as for B2
B4: I-636 (peptide)
peptide: Ac-[αAllylPro]DI[B5(16)]DEAAFQ[S8]F[Bta]Y-NH2
modifications: staple 1-4, 4-11
notes: Stapled peptide composition; also called Ac-PL3-Asp-Ile-B5-Asp-Glu-Ala-Ala-Phe-Gln-S8-Phe-BztA-Tyr-NH2
B5: I-639 (peptide)
peptide: XDIXDEAAFQXFXS
modifications: not fully specified; As printed: Ac-PL3-Asp-Ile-B5-Asp-Glu-Ala-Ala-Phe-Gln-S8-Phe-BztA-Ser-NH2; N-terminal Ac, C-terminal NH2; PL3 (1), B5 (4), S8 (11), BztA (13); staples PL3-B5 and B5-S8 by olefin metathesis
notes: Stapled peptide composition; also called Ac-PL3-Asp-Ile-B5-Asp-Glu-Ala-Ala-Phe-Gln-S8-Phe-BztA-Ser-NH2
B6: I-646 (peptide)
peptide: Ac-[αAllylPro]DI[B5(9)]DEAAFQ[S8]F[Bta]V-NH2
modifications: staple 1-4, 4-11
notes: Stapled peptide composition; also called Ac-PL3-Asp-Ile-B5-Asp-Glu-Ala-Ala-Phe-Gln-S8-Phe-BztA-Val-NH2
B7: I-642 (peptide)
peptide: XDIXDEAAFQXFXT
modifications: not fully specified; As printed: Ac-PL3-Asp-Ile-B5-Asp-Glu-Ala-Ala-Phe-Gln-S8-Phe-BztA-Thr-NH2; N-terminal Ac, C-terminal NH2; PL3 (1), B5 (4), S8 (11), BztA (13); staples PL3-B5 and B5-S8 by olefin metathesis
notes: Stapled peptide composition; also called Ac-PL3-Asp-Ile-B5-Asp-Glu-Ala-Ala-Phe-Gln-S8-Phe-BztA-Thr-NH2
B8: I-633 (peptide)
peptide: Ac-[αAllylPro]DI[B5(16)]DEAAFQ[S8]F[Bta]R-NH2
modifications: staple 1-4, 4-11
notes: Stapled peptide composition; also called Ac-PL3-Asp-Ile-B5-Asp-Glu-Ala-Ala-Phe-Gln-S8-Phe-BztA-Arg-NH2
B9: I-732 (peptide)
peptide: XDLXDEAAFNXFXQI
modifications: not fully specified; N-terminal Ac; C-terminal NH2; PL3 at 1, B5 at 4, S8 at 11, BztA at 13; stapled PL3-B5 and B5-S8 by olefin metathesis
notes: Stapled peptide; also called Ac-PL3-Asp-Leu-B5-Asp-Glu-Ala-Ala-Phe-Asn-S8-Phe-BztA-Gln-Ile-NH2
B10: I-739 (peptide)
peptide: XDLXDEAAFNXFXHA
modifications: not fully specified; N-terminal Ac; C-terminal NH2; PL3 at 1, B5 at 4, S8 at 11, BztA at 13, dAla (D-Ala) at 15; stapled PL3-B5 and B5-S8 by olefin metathesis
notes: also called Ac-PL3-Asp-Leu-B5-Asp-Glu-Ala-Ala-Phe-Asn-S8-Phe-BztA-His-dAla-NH2
B11: I-740 (peptide)
peptide: XDLXDEAAFNXFXHI
modifications: not fully specified; N-terminal Ac; C-terminal NH2; PL3 at 1, B5 at 4, S8 at 11, BztA at 13; stapled PL3-B5 and B5-S8 by olefin metathesis
notes: Stapled peptide; same description as I-741, earlier eluting staple isomer composition; also called Ac-PL3-Asp-Leu-B5-Asp-Glu-Ala-Ala-Phe-Asn-S8-Phe-BztA-His-Ile-NH2
B12: I-742 (peptide)
peptide: XDLXDEAAFNXFXHI
modifications: not fully specified; N-terminal Ac; C-terminal NH2; PL3 at 1, B5 at 4, S8 at 11, BztA at 13, dIle (D-Ile) at 15; stapled PL3-B5 and B5-S8 by olefin metathesis
notes: also called Ac-PL3-Asp-Leu-B5-Asp-Glu-Ala-Ala-Phe-Asn-S8-Phe-BztA-His-dIle-NH2
B13: I-741 (peptide)
peptide: XDLXDEAAFNXFXHI
modifications: not fully specified; N-terminal Ac; C-terminal NH2; PL3 at 1, B5 at 4, S8 at 11, BztA at 13; stapled PL3-B5 and B5-S8 by olefin metathesis
notes: Stapled peptide; same description as I-740, later eluting staple isomer composition; also called Ac-PL3-Asp-Leu-B5-Asp-Glu-Ala-Ala-Phe-Asn-S8-Phe-BztA-His-Ile-NH2
B14: I-738 (peptide)
peptide: XDLXDEAAFNXFXHA
modifications: not fully specified; N-terminal Ac; C-terminal NH2; PL3 at 1, B5 at 4, S8 at 11, BztA at 13; stapled PL3-B5 and B5-S8 by olefin metathesis
notes: also called Ac-PL3-Asp-Leu-B5-Asp-Glu-Ala-Ala-Phe-Asn-S8-Phe-BztA-His-Ala-NH2
B15: I-729 (peptide)
peptide: XDLXDEAAFNXFXQA
modifications: not fully specified; N-terminal Ac; C-terminal NH2; PL3 at 1, B5 at 4, S8 at 11, BztA at 13; stapled PL3-B5 and B5-S8 by olefin metathesis
notes: Stapled peptide; same description as I-730, earlier eluting staple isomer composition; also called Ac-PL3-Asp-Leu-B5-Asp-Glu-Ala-Ala-Phe-Asn-S8-Phe-BztA-Gln-Ala-NH2
B16: I-734 (peptide)
peptide: XDLXDEAAFNXFXQI
modifications: not fully specified; N-terminal Ac; C-terminal NH2; PL3 at 1, B5 at 4, S8 at 11, BztA at 13, dIle (D-Ile) at 15; stapled PL3-B5 and B5-S8 by olefin metathesis
notes: Stapled peptide; also called Ac-PL3-Asp-Leu-B5-Asp-Glu-Ala-Ala-Phe-Asn-S8-Phe-BztA-Gln-dIle-NH2
B17: I-735 (peptide)
peptide: XDLXDEAAFNXFXQI
modifications: not fully specified; N-terminal Ac; C-terminal NH2; PL3 at 1, B5 at 4, S8 at 11, BztA at 13, dIle (D-Ile) at 15; stapled PL3-B5 and B5-S8 by olefin metathesis
notes: as for B16
B18: I-744 (peptide)
peptide: XDLXDEAAFNXFXH
modifications: not fully specified; N-terminal Ac; C-terminal NH2; PL3 at 1, B5 at 4, S8 at 11, BztA at 13, dHis (D-His) at 14; stapled PL3-B5 and B5-S8 by olefin metathesis
notes: Stapled peptide; also called Ac-PL3-Asp-Leu-B5-Asp-Glu-Ala-Ala-Phe-Asn-S8-Phe-BztA-dHis-NH2
B19: I-733 (peptide)
peptide: XDLXDEAAFNXFXQI
modifications: not fully specified; N-terminal Ac; C-terminal NH2; PL3 at 1, B5 at 4, S8 at 11, BztA at 13; stapled PL3-B5 and B5-S8 by olefin metathesis
notes: as for B9

Starred links: 1 amine or outer side, 2 acyl side, 3 side chain; linkers in the order of their positions; H or OH if unused. Positions of bridges follow the written chain, without caps; N, C: chain ends. Non-standard residues stand in square brackets, D forms with d. Primed or numbered codes have the meaning given here. B5(16) = 2-amino-2-(pent-4-en-1-yl)hept-6-enoic acid = 2,2-bis(4-pentenyl)glycine (stitching residue), C=CCCCC(CCCC=C)(N[*:1])C(=O)[*:2]; B5(9) = 2-amino-2-(pent-4-en-1-yl)hept-6-enoic acid (2,2-bis(4-pentenyl)glycine), C=CCCCC(CCCC=C)(N[*:1])C(=O)[*:2]; Bta = N[C@@H](Cc1csc2ccccc12)C(=O)O; αAllylPro = C=CC[C@@]1(C(=O)O)CCCN1; S8 = C=CCCCCCC[C@](C)(N)C(=O)O

A word on the IC50: it is the concentration that inhibits the measured activity by half. Higher therefore signals weaker potency in that assay.

The target in one test is T1, full-length beta-Catenin (Uniprot ID …). Nature of the test: fluorescence polarization competition; full-length beta-catenin, competitor 5FAM-TCF4 10-53. Here is the method: (§1) The plate was incubated protected from light for 60 minutes at 20° C. prior to read. Reads were performed on a CLARIOstar plate reader (BMG Labtech) in duplicate, and data were fitted to a 1:1 binding model with hill slope using an in-house script. All provided concentrations are final concentrations.
The molecule B1 showed an IC50 of 425 nM. This counts as sub-micromolar.
Still for that read-out and setting: for B2 the value was 958 nM.
Same read-out and setting: the figure for B3 is 808 nM; for B4 it is 198 nM; for B5 it is 109 nM.
On the same count and under the same terms, the figure for B6 is 461 nM; for B7 it is 118 nM.
With B8, the IC50 was 88 nM.

A further test addresses T2, full-length beta-Catenin (Uniprot ID …). Nature of the test: fluorescence polarization competition; full-length beta-catenin, competitor 5FAM-TCF4(10-53) probe. Here is the method:
as §1
(In general: In fluorescence polarisation assays a small probe gives low polarisation when free and higher when bound to something large.)
B9: the IC50 turned out to be 4220 nM. This lies in the single-digit micromolar range.
On the same count and under the same terms, the figure for B10 is 53 nM; for B11 it is 376 nM.
The same measure, in the same setting: the figure for B12 is 159 nM; for B13 it is 226 nM.
B14: the IC50 stood at 63 nM.
B15 registered an IC50 of 56 nM.
On the same count and under the same terms, the figure for B16 is 370 nM; for B17 it is 246 nM.
Still for that read-out and setting: for B18 the value was 112 nM.
Consider B19, for which the IC50 is 4260 nM.

(Values after patent US20240116985A1 (published 2024).)
